From publication PMC7160556 come the findings set out here.

For assay [1], the target named is T1, endogenous 14-3-3ζ (YWHAZ) (human (endogenous in A549)), P63104.
T1 chain: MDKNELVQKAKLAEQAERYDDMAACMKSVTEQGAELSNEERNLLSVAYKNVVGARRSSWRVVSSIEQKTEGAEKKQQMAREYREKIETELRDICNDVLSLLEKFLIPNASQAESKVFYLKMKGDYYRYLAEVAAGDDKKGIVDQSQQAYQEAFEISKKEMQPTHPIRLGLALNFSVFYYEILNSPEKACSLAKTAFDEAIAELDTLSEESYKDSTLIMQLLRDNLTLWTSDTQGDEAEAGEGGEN
In words: native gel or EMSA. Conditions: remark: other sources report otherwise.

In assay [2] the target is T2, untagged 14-3-3ζ, overexpressed, P63104.
T2 chain: T1 chain
In words: native gel or EMSA. To be noted: remark: other sources report otherwise. Background: A gel shift assay detects complexes by their altered migration in electrophoresis.

B1: endogenous 14-3-3ζ (YWHAZ), P63104 1-245 (natural protein)
chain: T1 chain
Turning to B1, in assay [1], the stoichiometry N – broadly, the number of molecules, sites or subunits per partner or assembly – was 2.

B2: untagged 14-3-3ζ, overexpressed, P63104 1-245 (natural protein)
chain: T1 chain
Take B2: the stoichiometry N in assay [2] came out at 2.
